B1: WD-40 repeat-containing protein MSI4 (Arabidopsis thaliana (Mouse-ear cress)), O22607 (parent)
chain: MESDEAAAVSPQATTPSGGTGASGPKKRGRKPKTKEDSQTPSSQQQSDVKMKESGKKTQQSPSVDEKYSQWKGLVPILYDWLANHNLVWPSLSCRWGPQLEQATYKNRQRLYLSEQTDGSVPNTLVIANCEVVKPRVAAAEHISQFNEEARSPFVKKYKTIIHPGEVNRIRELPQNSKIVATHTDSPDVLIWDVETQPNRHAVLGAANSRPDLILTGHQDNAEFALAMCPTEPFVLSGGKDKSVVLWSIQDHITTIGTDSKSSGSIIKQTGEGTDKNESPTVGPRGVYHGHEDTVEDVAFSPTSAQEFCSVGDDSCLILWDARTGTNPVTKVEKAHDADLHCVDWNPHDDNLILTGSADNTVRLFDRRKLTANGVGSPIYKFEGHKAAVLCVQWSPDKSSVFGSSAEDGLLNIWDYDRVSKKSDRAAKSPAGLFFQHAGHRDKVVDFHWNASDPWTIVSVSDDCETTGGGGTLQIWRMSDLIYRPEEEVVAELEKFKSHVMTCASKP
partner: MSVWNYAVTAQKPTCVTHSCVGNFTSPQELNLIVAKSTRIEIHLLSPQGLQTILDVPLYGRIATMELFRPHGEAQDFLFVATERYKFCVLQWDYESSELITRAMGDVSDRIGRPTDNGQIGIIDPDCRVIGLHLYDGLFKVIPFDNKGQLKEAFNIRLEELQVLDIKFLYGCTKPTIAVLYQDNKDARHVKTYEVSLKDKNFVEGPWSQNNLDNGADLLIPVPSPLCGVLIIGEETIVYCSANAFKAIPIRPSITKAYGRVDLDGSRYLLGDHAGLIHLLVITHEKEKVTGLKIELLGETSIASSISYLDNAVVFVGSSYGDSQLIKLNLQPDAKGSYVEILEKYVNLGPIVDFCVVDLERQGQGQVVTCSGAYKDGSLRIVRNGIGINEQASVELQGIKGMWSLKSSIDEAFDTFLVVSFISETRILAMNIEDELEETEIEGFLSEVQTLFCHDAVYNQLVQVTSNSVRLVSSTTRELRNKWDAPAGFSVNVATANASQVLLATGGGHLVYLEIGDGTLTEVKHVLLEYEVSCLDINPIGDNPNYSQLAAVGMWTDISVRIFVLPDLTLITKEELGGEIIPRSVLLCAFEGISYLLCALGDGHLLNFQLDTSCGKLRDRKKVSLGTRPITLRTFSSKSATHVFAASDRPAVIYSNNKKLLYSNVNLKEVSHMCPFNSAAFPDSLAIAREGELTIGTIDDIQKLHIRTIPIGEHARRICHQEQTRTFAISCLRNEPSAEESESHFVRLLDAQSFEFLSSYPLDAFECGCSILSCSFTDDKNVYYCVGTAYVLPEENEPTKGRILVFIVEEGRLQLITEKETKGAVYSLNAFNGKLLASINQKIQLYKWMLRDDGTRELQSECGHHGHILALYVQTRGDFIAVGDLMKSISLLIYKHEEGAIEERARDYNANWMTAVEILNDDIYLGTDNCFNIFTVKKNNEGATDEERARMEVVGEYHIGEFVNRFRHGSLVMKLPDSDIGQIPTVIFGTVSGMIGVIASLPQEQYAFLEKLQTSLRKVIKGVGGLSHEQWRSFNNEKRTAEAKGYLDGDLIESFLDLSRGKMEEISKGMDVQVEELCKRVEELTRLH
B2: WD-40 repeat-containing protein MSI4 (Arabidopsis thaliana (Mouse-ear cress)), O22607 (parent)
chain: B1 chain
partner: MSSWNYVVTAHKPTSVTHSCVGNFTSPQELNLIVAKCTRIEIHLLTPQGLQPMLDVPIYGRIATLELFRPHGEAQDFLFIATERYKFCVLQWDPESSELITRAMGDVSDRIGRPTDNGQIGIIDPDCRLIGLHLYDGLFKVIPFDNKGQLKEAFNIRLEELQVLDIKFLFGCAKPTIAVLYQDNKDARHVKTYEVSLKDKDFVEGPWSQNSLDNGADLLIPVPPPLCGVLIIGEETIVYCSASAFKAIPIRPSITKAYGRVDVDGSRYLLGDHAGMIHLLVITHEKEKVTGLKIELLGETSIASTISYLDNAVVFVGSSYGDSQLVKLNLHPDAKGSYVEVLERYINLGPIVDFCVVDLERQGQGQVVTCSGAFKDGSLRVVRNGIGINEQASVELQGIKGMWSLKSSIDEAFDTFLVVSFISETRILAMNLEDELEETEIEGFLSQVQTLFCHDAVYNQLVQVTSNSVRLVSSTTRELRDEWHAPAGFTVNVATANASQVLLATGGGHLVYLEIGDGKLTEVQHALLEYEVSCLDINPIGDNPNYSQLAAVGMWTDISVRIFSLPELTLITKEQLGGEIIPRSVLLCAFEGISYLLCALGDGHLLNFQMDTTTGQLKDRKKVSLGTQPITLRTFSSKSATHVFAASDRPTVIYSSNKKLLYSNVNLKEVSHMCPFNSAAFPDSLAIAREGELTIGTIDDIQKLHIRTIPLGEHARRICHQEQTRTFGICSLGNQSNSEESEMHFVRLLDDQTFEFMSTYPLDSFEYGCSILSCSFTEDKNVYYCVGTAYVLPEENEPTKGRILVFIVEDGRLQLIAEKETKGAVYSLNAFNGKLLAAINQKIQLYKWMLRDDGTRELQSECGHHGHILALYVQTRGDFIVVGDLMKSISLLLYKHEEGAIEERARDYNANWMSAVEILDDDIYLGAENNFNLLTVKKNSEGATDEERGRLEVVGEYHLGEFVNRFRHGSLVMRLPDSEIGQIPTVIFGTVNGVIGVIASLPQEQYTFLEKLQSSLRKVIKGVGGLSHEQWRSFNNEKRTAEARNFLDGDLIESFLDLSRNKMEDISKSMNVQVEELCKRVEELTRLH

Variants of: B1
Conditions: with ddb1b_arath DDB1B

**Q.** Which “effect of a mutation on the interaction” value does the source give for R323H here?
**A.** decreasing interaction strength

Variants of: B2
Conditions: with ddb1a_arath DDB1A

**Q.** How did the “effect of a mutation on the interaction” value turn out when R323H was run?
**A.** decreasing interaction strength

Reference: IntAct's records for PubMed 21282611
